Laboratory results: US20250084169A1 (published 2025)

Tests used:
Test in all cases: SPR
complement component C1q = complement component C1q (UniProt P02745 23-245; P02746 28-253; P02747 29-245)
[1] = target: T1, recombinant human Fc gamma RIIa (CD32a) 131R (human, UniProt P12318 36-218)
T1 chain: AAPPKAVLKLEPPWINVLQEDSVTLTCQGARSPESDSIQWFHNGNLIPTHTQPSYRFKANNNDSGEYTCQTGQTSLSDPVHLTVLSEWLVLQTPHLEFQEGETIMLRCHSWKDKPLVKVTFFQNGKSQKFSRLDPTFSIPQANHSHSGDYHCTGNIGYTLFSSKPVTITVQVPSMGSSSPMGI

[2] = target: recombinant human Fc gamma RIIIa (CD16a) 158V (human, UniProt P08637 17-208)
recombinant human CD19 = target: T2, recombinant human CD19 (human, UniProt P15391 20-291)
T2 chain: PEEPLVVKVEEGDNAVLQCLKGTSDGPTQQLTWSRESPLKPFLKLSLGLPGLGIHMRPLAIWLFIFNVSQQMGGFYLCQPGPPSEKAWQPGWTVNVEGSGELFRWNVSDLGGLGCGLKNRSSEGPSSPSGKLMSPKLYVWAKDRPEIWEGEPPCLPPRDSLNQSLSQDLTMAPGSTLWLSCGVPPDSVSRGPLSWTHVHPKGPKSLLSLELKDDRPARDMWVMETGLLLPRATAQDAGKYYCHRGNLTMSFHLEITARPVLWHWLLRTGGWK

[3] = target: T3, recombinant human full-length CD20 (human, UniProt P11836 1-297)
T3 chain: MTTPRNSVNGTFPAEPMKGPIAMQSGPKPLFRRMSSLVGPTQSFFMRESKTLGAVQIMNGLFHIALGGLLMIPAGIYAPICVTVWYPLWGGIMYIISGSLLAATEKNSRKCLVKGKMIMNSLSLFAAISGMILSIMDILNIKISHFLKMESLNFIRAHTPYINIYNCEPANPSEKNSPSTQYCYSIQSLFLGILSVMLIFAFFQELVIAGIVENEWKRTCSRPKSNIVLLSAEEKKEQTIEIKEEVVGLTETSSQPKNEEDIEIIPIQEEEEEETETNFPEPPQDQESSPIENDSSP

[4] = target: T4, recombinant human Fc gamma RI (CD64) (human, UniProt P12314 16-288)
T4 chain: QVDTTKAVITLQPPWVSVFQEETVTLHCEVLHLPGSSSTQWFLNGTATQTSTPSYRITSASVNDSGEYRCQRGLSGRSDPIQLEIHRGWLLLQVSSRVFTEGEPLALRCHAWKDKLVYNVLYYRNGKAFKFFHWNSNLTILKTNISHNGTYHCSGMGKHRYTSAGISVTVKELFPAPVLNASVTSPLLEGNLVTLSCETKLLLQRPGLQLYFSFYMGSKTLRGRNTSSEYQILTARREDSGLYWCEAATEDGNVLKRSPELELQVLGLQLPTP

complement component C1q, sequence (P02745 23-245, chain 1 of 3): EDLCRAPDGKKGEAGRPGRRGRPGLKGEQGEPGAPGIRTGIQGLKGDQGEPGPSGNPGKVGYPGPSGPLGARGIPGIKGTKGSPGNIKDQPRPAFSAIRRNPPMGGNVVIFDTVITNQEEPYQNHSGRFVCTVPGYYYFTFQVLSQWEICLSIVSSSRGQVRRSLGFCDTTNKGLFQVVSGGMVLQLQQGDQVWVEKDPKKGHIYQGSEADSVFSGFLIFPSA
complement component C1q, sequence (P02746 28-253, chain 2 of 3): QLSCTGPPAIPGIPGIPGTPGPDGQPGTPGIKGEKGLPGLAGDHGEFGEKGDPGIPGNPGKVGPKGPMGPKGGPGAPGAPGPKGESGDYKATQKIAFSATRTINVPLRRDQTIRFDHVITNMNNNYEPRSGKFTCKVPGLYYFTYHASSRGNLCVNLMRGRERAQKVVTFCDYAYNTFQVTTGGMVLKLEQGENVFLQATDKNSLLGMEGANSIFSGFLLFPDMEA
complement component C1q, sequence (P02747 29-245, chain 3 of 3): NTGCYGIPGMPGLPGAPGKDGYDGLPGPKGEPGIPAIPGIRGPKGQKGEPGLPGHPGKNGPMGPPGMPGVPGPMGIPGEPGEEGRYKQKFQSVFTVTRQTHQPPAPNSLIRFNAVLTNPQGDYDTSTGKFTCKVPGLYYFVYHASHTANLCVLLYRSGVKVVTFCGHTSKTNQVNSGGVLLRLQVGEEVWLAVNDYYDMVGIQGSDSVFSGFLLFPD
recombinant human Fc gamma RIIIa (CD16a) 158V, sequence (P08637 17-208 F176V): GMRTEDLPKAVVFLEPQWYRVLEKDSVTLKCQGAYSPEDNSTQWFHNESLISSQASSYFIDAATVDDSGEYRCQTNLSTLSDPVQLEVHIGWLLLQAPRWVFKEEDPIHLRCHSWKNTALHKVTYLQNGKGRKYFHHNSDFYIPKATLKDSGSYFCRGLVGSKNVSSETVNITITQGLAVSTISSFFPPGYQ

| Binder | Kd (complement component C1q) | Kd [1] | Kd [2] | Kd (recombinant human CD19) | Kd [3] | Kd [4] |
| --- | --- | --- | --- | --- | --- | --- |
| HB1905 (bispecific antibody) light 1: DIQMTQTTSSLSASLGDRVTISCRASQDISKYLNWYQEKPDGTVKLLIYHTSRLHSGVPSRFSGSGSGTDYSLTISNLEQEDIATYFCQQGNTLPYTFGGGTKLEIKRTVAAPSVFIFPPSDEQLKSGTASVKCLLNNFYPREAKVQWKVDNALQSGNSQESVTEQDSKDSTYSLSSTLTLSKADYEKHKVYACEVTHQGLSSPVTKSFNRGEC heavy 1: EVKLQESGPGLVAPSQSLSVTCTVSGVSLPDYGVSWIRKPPRKGLEWLGVIWGSETTYYNSALKSRLTIIKDNSKSQVFLKMSSLQTDDTAIYYCAKHYYYGGSYAMDYWGQGTSVTVSSASTKGPSVFPLAPSSKSTSGGTAALGCLVKDYFPEPVTVSWNSGALTSGVHTFPAVLQSSGLYSLESVVTVPSSSLGTQTYICNVNHKPSNTKVDKKVEPKSCTDWSPYADQSIKVRISLKSALGDKAYEWNDNEMYLFRSSVAYAMRQYFLKVKNQMILFGEEDVRVANLKPRISFNFFVTAPKNVSDIIPRTEVEKAIRMSRSRINDAFRLNDNSLEFLGIQPTLGPPNQPPVSTSTSPTRSMAPGAVHLPQPVSTRDKTHTCPPCPAPELLGGPSVFLFPPKPKDTLMISRTPEVTCVVVDVSHEDPEVKFNWYVDGVEVHNAKTKPREEQYNSTYRVVSVLTVLHQDWLNGKEYKCKVSNKALPAPIEKTISKAKGQPREPQVCTLPPSRDELTKNQVSLSCAVKGFYPSDIAVEWESNGQPENNYKTTPPVLDSDGSFFLVSKLTVDKSRWQQGNVFSCSVMHEALHNRFTQKSLSLSPG light 2: QVQLQQPGAELVKPGASVKMSCKASGYTFTSYNMHWVKKTPGRGLEWIGAIYPGNGDTSYNQKFKGKATLTADKSSSTAYMQLSSLTSEDSAVYYCARSTYYGGDWYFNVWGAGTLVTVSSASVAAPSVFIFPPSDEQLKSGTASVECLLNNFYPREAKVQWKVDNALQSGNSQESVTEQDSKDSTYSLSSTLTLSKADYEKHKVYACEVTHQGLSSPVTKSFNRGEC heavy 2: not shown | 115 nM | 380 nM | 493 nM | 4.8 nM | < 0.18 nM | 0.234 nM |
| HB1906 (bispecific antibody) light 1: DIQMTQTTSSLSASLGDRVTISCRASQDISKYLNWYQEKPDGTVKLLIYHTSRLHSGVPSRFSGSGSGTDYSLTISNLEQEDIATYFCQQGNTLPYTFGGGTKLEIKRTVAAPSVFIFPPSDEQLKSGTASVKCLLNNFYPREAKVQWKVDNALQSGNSQESVTEQDSKDSTYSLSSTLTLSKADYEKHKVYACEVTHQGLSSPVTKSFNRGEC heavy 1: EVKLQESGPGLVAPSQSLSVTCTVSGVSLPDYGVSWIRKPPRKGLEWLGVIWGSETTYYNSALKSRLTIIKDNSKSQVFLKMSSLQTDDTAIYYCAKHYYYGGSYAMDYWGQGTSVTVSSASTKGPSVFPLAPSSKSTSGGTAALGCLVKDYFPEPVTVSWNSGALTSGVHTFPAVLQSSGLYSLESVVTVPSSSLGTQTYICNVNHKPSNTKVDKKVEPKSCTDWSPYADQSIKVRISLKSALGDKAYEWNDNEMYLFRSSVAYAMRQYFLKVKNQMILFGEEDVRVANLKPRISFNFFVTAPKNVSDIIPRTEVEKAIRMSRSRINDAFRLNDNSLEFLGIQPTLGPPNQPPVSTSTSPTRSMAPGAVHLPQPVSTRDKTHTCPPCPAPELLGGPSVFLFPPKPKDTLMISRTPEVTCVVVDVSHEDPEVKFNWYVDGVEVHNAKTKPREEQYNSTYRVVSVLTVLHQDWLNGKEYKCKVSNKALPAPIEKTISKAKGQPREPQVCTLPPSRDELTKNQVSLSCAVKGFYPSDIAVEWESNGQPENNYKTTPPVLDSDGSFFLVSKLTVDKSRWQQGNVFSCSVMHEALHNRFTQKSLSLSPG light 2: QVQLQQPGAELVKPGASVKMSCKASGYTFTSYNMHWVKETPGRGLEWIGAIYPGNGDTSYNQKFKGKATLTADKSSSTAYMQLSSLTSEDSAVYYCARSTYYGGDWYFNVWGAGTLVTVSSASVAAPSVFIFPPSDEQLKSGTASVECLLNNFYPREAKVQWKVDNALQSGNSQESVTEQDSKDSTYSLSSTLTLSKADYEKHKVYACEVTHQGLSSPVTKSFNRGEC heavy 2: not shown | 115 nM | 329 nM | 488 nM | 3.8 nM | 0.423 nM | 0.259 nM |
| Rituximab (antibody) VH: not shown VL: QIVLSQSPAILSASPGEKVTMTCRASSSVSYIHWFQQKPGSSPKPWIYATSNLASGVPVRFSGSGSGTSYSLTISRVEAEDAATYYCQQWTSNPPTFGGGTKLEIKRTVAAPSVFIFPPSDEQLKSGTASVVCLLNNFYPREAKVQWKVDNALQSGNSQESVTEQDSKDSTYSLSSTLTLSKADYEKHKVYACEVTHQGLSSPVTKSFNRGEC |  |  |  |  | 0.596 nM |  |
